Results published in the supplement of paper PMC10065799, “High-throughput profiling of sequence recognition by tyrosine kinases and SH2 domains using bacterial peptide display” (eLife, 2023).

Tested on: c-Abl (mouse)
Test: phosphorylation enrichment, bacterial display (enrichment ratio); higher = better substrate or ligand; peptides without Tyr show the background
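Also: 11-residue human phosphosite peptides and single-mutation variants displayed on the E. coli surface, counted by deep sequencing, each peptide's frequency after selection divided by its frequency in the unselected input library; frequency after pTyr selection over input frequency; kinase dosed for 20-30% of maximal phosphorylation in three min.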

Sequence	phosphorylation enrichment
QITQVYGFYHE [PPP2CA_Y127_D131H]	0.67
LPKVSCVKAID [GLRA1_Y307_Y307C]	0.803
SNKLTYGTVVF [ACOX1_Y275_M278V]	0.613
EALDFYGELRT [PTEN_Y155_V158L]	0.843
WRGMPYGGRGD [TGM1_Y312_R307W]	0.396
ALEKTYNTFRS [B4GALNT2_Y538_YF]	0.503
GFSRHCEDGFP [CTNND1_Y217_Y217C_YF]	0.83
DFDHSYFFIAT [ESD_Y262_G257D_YF]	0.958
FLAVGYHKPRI [IDS_Y225_H229R]	0.481
YGMSTYITRED [FNDC3B_Y180]	0.924
RGVAHYILQTF [SLC39A4_Y359_T357A]	1.13
MNKNAYHNVTT [ST3GAL6_Y306_A311T]	0.525
TNLVPYTRIHF [TUBA1A_Y262_P263T]	0.469
FTNELYMMMRD [FGFR1_Y730_C725Y_YF]	0.57
QGIIIYKAAYF [SLC25A4_Y187_R188K]	1.85
GTFEDYVEGLR [MYL6_Y89_YF]	0.688
FRQLPYCPSVE [CTNND2_Y508_Q507P_YF]	0.837

Sequence	phosphorylation enrichment
HLVLNYGVCFC [JAK2_Y613_V617F]	1.29
IEELTYVIKQD [STX5_Y137_I138V]	0.705
IEDNEYTAREG [HCK_Y411]	1.08
EYRFIYMAVQH [PTPN11_Y515_Q510E]	2.02
SDTGQYQCLVF [AXL_Y115]	1.86
ALVLQYLRVPL [F9_Y371]	0.62
RSGIFYKPESL [L2HGDH_Y103_H98R_YF]	0.706
EEALHYLTRVE [SET_Y119]	0.748
DKATEYSQFMR [MAX_Y70_I71S_YF]	0.519
SHNKFYMLVAH [MFSD8_Y134_R139H_YF]	0.922
LSDGPYSSPYE [EPOR_Y485_N487S]	1.18
RDLRTYIMPAH [PNMT_Y256]	0.772
KINKMYSDHAM	0.499
VCHELYNTIRD [PBRM1_Y54]	0.978
TLSGTYQFIIA [FOXL2_Y81_I80T_YF]	0.611
ETLLYYGYRRS [POR_Y564_C566Y]	9.52

Tested on: AncSZ
Test: as above

Sequence	phosphorylation enrichment
QITQVYGFYHE [PPP2CA_Y127_D131H]	0.938
LPKVSCVKAID [GLRA1_Y307_Y307C]	1.19
SNKLTYGTVVF [ACOX1_Y275_M278V]	0.777
EALDFYGELRT [PTEN_Y155_V158L]	1.27
WRGMPYGGRGD [TGM1_Y312_R307W]	0.548
ALEKTYNTFRS [B4GALNT2_Y538_YF]	0.573
GFSRHCEDGFP [CTNND1_Y217_Y217C_YF]	0.767
DFDHSYFFIAT [ESD_Y262_G257D_YF]	2.16
FLAVGYHKPRI [IDS_Y225_H229R]	0.638
YGMSTYITRED [FNDC3B_Y180]	0.972
RGVAHYILQTF [SLC39A4_Y359_T357A]	1.48
MNKNAYHNVTT [ST3GAL6_Y306_A311T]	0.497
TNLVPYTRIHF [TUBA1A_Y262_P263T]	0.765
FTNELYMMMRD [FGFR1_Y730_C725Y_YF]	1.37
QGIIIYKAAYF [SLC25A4_Y187_R188K]	1.66
GTFEDYVEGLR [MYL6_Y89_YF]	1.08
FRQLPYCPSVE [CTNND2_Y508_Q507P_YF]	1.25

Sequence	phosphorylation enrichment
HLVLNYGVCFC [JAK2_Y613_V617F]	2.91
IEELTYVIKQD [STX5_Y137_I138V]	1.23
IEDNEYTAREG [HCK_Y411]	1.56
EYRFIYMAVQH [PTPN11_Y515_Q510E]	1.39
SDTGQYQCLVF [AXL_Y115]	1.33
ALVLQYLRVPL [F9_Y371]	1.03
RSGIFYKPESL [L2HGDH_Y103_H98R_YF]	0.994
EEALHYLTRVE [SET_Y119]	1.02
DKATEYSQFMR [MAX_Y70_I71S_YF]	0.84
SHNKFYMLVAH [MFSD8_Y134_R139H_YF]	1.42
LSDGPYSSPYE [EPOR_Y485_N487S]	2.3
RDLRTYIMPAH [PNMT_Y256]	0.921
KINKMYSDHAM	0.495
VCHELYNTIRD [PBRM1_Y54]	0.898
TLSGTYQFIIA [FOXL2_Y81_I80T_YF]	1.27
ETLLYYGYRRS [POR_Y564_C566Y]	1.21
